Assay results taken from PMC9117659, “Phase transition and remodeling complex assembly are important for SS18-SSX oncogenic activity in synovial sarcomas” (Nature Communications, 2022).

B1: Human SS18 (residues 1-387), purified recombinant [human] / BRG1^(1-282), N-terminal 282-residue fragment of BRG1 [human] (parent complex)
chain 1: MSVAFAAPRQRGKGEITPAAIQKMLDDNNHLIQCIMDSQNKGKTSECSQYQQMLHTNLVYLATIADSNQNMQSLLPAPPTQNMPMGPGGMNQSGPPPPPRSHNMPSDGMVGGGPPAPHMQNQMNGQMPGPNHMPMQGPGPNQLNMTNSSMNMPSSSHGSMGGYNHSVPSSQSMPVQNQMTMSQGQPMGNYGPRPNMSMQPNQGPMMHQQPPSQQYNMPQGGGQHYQGQQPPMGMMGQVNQGNHMMGQRQIPPYRPPQQGPPQQYSGQEDYYGDQYSHGGQGPPEGMNQQYYPDGNSQYGQQQDAYQGPPPQQGYPPQQQQYPGQQGYPGQQQGYGPSQGGPGPQYPNYPQGQGQQYGGYRPTQPGPPQPPQQRPYGYDQGQYGNYQQ
chain 2: MSTPDPPLGGTPRPGPSPGPGPSPGAMLGPSPGPSPGSAHSMMGPSPGPPSAGHPIPTQGPGGYPQDNMHQMHKPMESMHEKGMSDDPRYNQMKGMGMRSGGHAGMGPPPSPMDQHSQGYPSPLGGSEHASSPVPASGPSSGPQMSSGPGGAPLDGADPQALGQQNRGPTPFNQNQLHQLRAQIMAYKMLARGQPLPDHLQMAVQGKRPMPGMQQQMPTLPPPSVSATGPGPGPGPGPGPGPGPAPPNYSRPHGMGGPNMPPPGPSGVPPGMPGQPPGGPPK

Variants of: B1
Assay: sedimentation assay; 60 µM each protein; parent: 65; read off a plot

Variant | screen value [%]
chain 1 MSVAFAAPRQRGKGEITPAAIQKMLDDNNHLEQCIMDSQNKGKTSECSQYQQMEHTNLVYLATIEDSNQNMQSLLPAPPTQNMPMGPGGMNQSGPPPPPRSHNMPSDGMVGGGPPAPHMQNQMNGQMPGPNHMPMQGPGPNQLNMTNSSMNMPSSSHGSMGGYNHSVPSSQSMPVQNQMTMSQGQPMGNYGPRPNMSMQPNQGPMMHQQPPSQQYNMPQGGGQHYQGQQPPMGMMGQVNQGNHMMGQRQIPPYRPPQQGPPQQYSGQEDYYGDQYSHGGQGPPEGMNQQYYPDGNSQYGQQQDAYQGPPPQQGYPPQQQQYPGQQGYPGQQQGYGPSQGGPGPQYPNYPQGQGQQYGGYRPTQPGPPQPPQQRPYGYDQGQYGNYQQ [chain 1 I32E, chain 1 L54E, chain 1 A65E] | ~6
